This note sets out measurements from paper PMC9832876, “PpTCP18 is upregulated by lncRNA5 and controls branch number in peach (Prunus persica) through positive feedback regulation of strigolactone biosynthesis”.

Data set [1] has as its target T1, PpTCP18 (Prunus persica, UniProt A0A251PBZ8 1-468).
T1 sequence: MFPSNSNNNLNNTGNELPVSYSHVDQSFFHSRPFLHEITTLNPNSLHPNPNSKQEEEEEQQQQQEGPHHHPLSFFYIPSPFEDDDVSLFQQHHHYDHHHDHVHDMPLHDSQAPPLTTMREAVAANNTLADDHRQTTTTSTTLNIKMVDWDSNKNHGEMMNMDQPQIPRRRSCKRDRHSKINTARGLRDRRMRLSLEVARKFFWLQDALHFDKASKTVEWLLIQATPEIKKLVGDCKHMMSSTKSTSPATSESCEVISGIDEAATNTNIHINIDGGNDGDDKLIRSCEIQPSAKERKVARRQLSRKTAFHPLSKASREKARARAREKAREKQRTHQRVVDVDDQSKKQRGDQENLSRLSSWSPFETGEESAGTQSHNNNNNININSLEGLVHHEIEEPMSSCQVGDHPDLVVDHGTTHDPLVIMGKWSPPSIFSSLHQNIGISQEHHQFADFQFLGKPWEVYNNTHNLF
The data set can be described thus: EMSA; weakened by 100-fold unlabeled probe; Thermo Scientific EMSA kit, manufacturer's instructions; buffer, salt, pH and temperature not stated. To be noted: protein: recombinant; tags: MBP; chain copies: 2; label: 5' biotin; blunt. On the technique in general: In EMSA bound probe runs differently from free probe, usually more slowly.

The target of data set [2] is T1, PpTCP18. The data set can be described thus: EMSA; Thermo Scientific EMSA kit, manufacturer's instructions; buffer, salt, pH and temperature not stated. To be noted: protein: recombinant; tags: MBP; chain copies: 2; label: 5' biotin; blunt.

B1: PpMAX3 promoter probe (dsDNA)
DNA 1: CGTAACCCTCCATTTAAAAAAGTGGGTCCCAAATCCCAAAGCATGAGTGGATGGAGAGGAA
DNA 2: TTCCTCTCCATCCACTCATGCTTTGGGATTTGGGACCCACTTTTTTAAATGGAGGGTTACG
For the molecule B1, the binding result in the data set with PpTCP18 [1] is listed as “binds”.

B2: PpMAX4 promoter probe (dsDNA)
DNA 1: ATATTGTAATTTTTCACTGGCATACTGGTCCCTAATCACCAATTAACGCAACAT
DNA 2: ATGTTGCGTTAATTGGTGATTAGGGACCAGTATGCCAGTGAAAAATTACAATAT
Consider B2, for which the binding result with PpTCP18 [1] is “binds”.

B3: PpMAX4 mutated probe (GGTCCC to AAAAAA) (dsDNA)
DNA 1: ATATTGTAATTTTTCACTGGCATACTAAAAAATAATCACCAATTAACGCAACAT
DNA 2: ATGTTGCGTTAATTGGTGATTATTTTTTAGTATGCCAGTGAAAAATTACAATAT
For B3, in the data set with PpTCP18 [2], the binding result is given as “no binding”.

B4: PpLBO1 promoter probe (dsDNA)
DNA 1: GTAAATACTCCAAACCATTACACTAGTGGGTCCTTTACTAATTACATTGTTTTAA
DNA 2: TTAAAACAATGTAATTAGTAAAGGACCCACTAGTGTAATGGTTTGGAGTATTTAC
For the molecule B4, the binding result with PpTCP18 [1] was “binds”.

B5: PpLBO1 mutated probe (GGGTCC to AAAAAA) (dsDNA)
DNA 1: GTAAATACTCCAAACCATTACACTAGTAAAAAATTTACTAATTACATTGTTTTAA
DNA 2: TTAAAACAATGTAATTAGTAAATTTTTTACTAGTGTAATGGTTTGGAGTATTTAC
As for B5, in the data set with PpTCP18 [2], the binding result is “no binding”.
